Experimental data reported in patent publication US20090117124A1 (Pfizer, published 2009).

Experiments:
[1] = target: T1, cynomolgus monkey IgE (in cynomolgus serum, Harlan Sera-Lab Ltd) (cynomolgus monkey); assay: capture ELISA, Test 1, Cyno 5
T1 construct: Serum was the source of IgE; eight serum samples; also called cynomolgus IgE; Cyno 1 to Cyno 8 serum samples
Description: (§1) Wells were washed once with 150 μL/well wash buffer (0.05% Tween-20, Sigma, Cat. No. P7949/TBS) then blocked with 150 μL/well 1% BSA (Sigma, Cat. No. A7030) in TBS for 2 hours at room temperature. Wells were washed twice with 150 μL wash buffer. 50 μL human (in-house donors) or cynomolgus serum (Harlan Sera-Lab Ltd, Loughborough) was added from neat to at least 1:16 dilution in 1% BSA/0.05% Tween-20/TBS diluent buffer. […] Wells were incubated for 2 hours at 25° C. before washing (3×150 μL wash buffer). […] Wells were incubated for 1 hour at 25° C. then washed (3×150 μL wash buffer). Streptavidin-HRP (Amersham Bioscience, Cat. No. RPN 1231) diluted 1:1000 in diluent buffer was added to all wells and incubated for 45 minutes at room temperature. Wells were washed (3×150 […] wash buffer). 50 μL OPD (Dako, Cat. No. S2045) was added to all wells and the color allowed to develop for 10 minutes before stopping the reaction with 50 μl 0.6M H₂SO₄ and the absorbance measured at 490 nm.

[2] = target: T1, cynomolgus monkey IgE (in cynomolgus …); assay: capture ELISA, Test 1, Cyno 3
Description: as §1

[3] = target: T1, cynomolgus monkey IgE (in cynomolgus …); assay: capture ELISA, Test 1, Cyno 1
Description: as §1

[4] = target: T2, free IgE in human serum (healthy volunteers, in-house donors) (human, UniProt P01854-1 1-428); assay: serum free IgE depletion ELISA; DIN 0451 experiment 1
T2 construct: Kept apart from the bought myeloma IgE because it is native serum IgE of single donors; also called serum IgE
Description: (§2) The next day ELISA plates were washed 1× with 300 μL/well wash buffer (0.05% Tween-20, Sigma, Cat. No. P7949/TBS) then blocked with 150 μL/well 1% BSA (Sigma, Cat. No. A7030) in TBS for 1 hour at room temperature.

[5] = target: T1, cynomolgus monkey IgE (in cynomolgus …); assay: capture ELISA, Test 1, Cyno 2
Description: as §1

[6] = target: T2, free IgE in human serum (healthy …); assay: serum free IgE depletion ELISA; DIN 0632 experiment 1
Description: as §2

[7] = target: T2, free IgE in human serum (healthy …); assay: serum free IgE depletion ELISA; DIN 0321 experiment 1
Description: as §2

[8] = target: T2, free IgE in human serum (healthy …); assay: serum free IgE depletion ELISA; DIN 0382
Description: as §2

[9] = target: T2, free IgE in human serum (healthy …); assay: serum free IgE depletion ELISA; DIN 0748
Description: as §2

[10] = target: T2, free IgE in human serum (healthy …); assay: serum free IgE depletion ELISA; DIN 0011 experiment 1
Description: as §2

T2 sequence (P01854 other isoform, or with tags, fused parts or gaps): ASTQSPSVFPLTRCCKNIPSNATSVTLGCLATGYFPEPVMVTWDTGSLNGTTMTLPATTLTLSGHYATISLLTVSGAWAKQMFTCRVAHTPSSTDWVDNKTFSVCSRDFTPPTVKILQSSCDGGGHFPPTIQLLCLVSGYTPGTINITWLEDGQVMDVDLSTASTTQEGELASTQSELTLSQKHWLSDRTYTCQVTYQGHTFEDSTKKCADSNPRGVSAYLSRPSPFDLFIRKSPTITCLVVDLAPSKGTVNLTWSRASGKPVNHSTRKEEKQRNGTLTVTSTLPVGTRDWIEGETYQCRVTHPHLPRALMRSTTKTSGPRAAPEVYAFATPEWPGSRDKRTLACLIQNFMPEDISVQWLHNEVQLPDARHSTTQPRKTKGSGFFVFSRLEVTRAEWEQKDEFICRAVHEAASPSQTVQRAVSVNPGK

IgE concentration detected [1]: 837 ng/mL | IgE concentration detected [2]: 457 ng/mL | IgE concentration detected [3]: 481 ng/mL | IC25 ng/mL [4]: 11.6 µg/mL | IgE concentration detected [5]: 464 ng/mL | IC25 ng/mL [6]: 8.91 µg/mL | IC25 ng/mL [7]: 1.34 µg/mL | IC25 ng/mL [8]: 25 µg/mL | IC25 ng/mL [9]: 25.1 µg/mL | IC25 ng/mL [10]: 3.3 µg/mL
B1: 5.948.1 (recombinant) (antibody, human IgG2, kappa, V domains shown)
VH: QVQLVQSGAEVKKPGASVKVSCKASGYTFTSYDINWVRQATGQGLEWMGWMDPNSGNTGYAQKFQGRVTMTRNTSISTAYMELSSLRSEDTAVYYCARGHYDSDGYYSFSGMDVWGQGTTVTVSS
VL: not shown
notes: Human IgG2 kappa; leader omitted; Two batches were tested in some assays; also called recombinant 5.948.1; 5.948.1 - Batch 1 (762.8 µg/mL)
